T1: Escherichia coli tryptophan synthase alpha subunit (αTS), A198W variant (E. coli, UniProt P0A877 1-268, A198W)
T1 sequence: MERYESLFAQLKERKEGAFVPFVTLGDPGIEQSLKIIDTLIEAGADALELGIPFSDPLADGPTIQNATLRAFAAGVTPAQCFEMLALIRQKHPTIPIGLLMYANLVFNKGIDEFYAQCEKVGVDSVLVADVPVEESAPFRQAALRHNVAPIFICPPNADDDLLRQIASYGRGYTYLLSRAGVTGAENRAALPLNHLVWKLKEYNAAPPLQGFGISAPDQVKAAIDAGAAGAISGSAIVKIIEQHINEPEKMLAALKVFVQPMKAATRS

T2: Escherichia coli tryptophan synthase beta subunit (βTS) (E. coli, UniProt P0A879 1-397)
T2 construct: tryptophan synthase beta subunit (βTS), E. coli; No removal of the hexahistidine tag is mentioned; also called beta subunit of TS; source: E. coli BL21 (DE3*), purified (Ni-NTA, S200 size exclusion)
T2 sequence (looked up): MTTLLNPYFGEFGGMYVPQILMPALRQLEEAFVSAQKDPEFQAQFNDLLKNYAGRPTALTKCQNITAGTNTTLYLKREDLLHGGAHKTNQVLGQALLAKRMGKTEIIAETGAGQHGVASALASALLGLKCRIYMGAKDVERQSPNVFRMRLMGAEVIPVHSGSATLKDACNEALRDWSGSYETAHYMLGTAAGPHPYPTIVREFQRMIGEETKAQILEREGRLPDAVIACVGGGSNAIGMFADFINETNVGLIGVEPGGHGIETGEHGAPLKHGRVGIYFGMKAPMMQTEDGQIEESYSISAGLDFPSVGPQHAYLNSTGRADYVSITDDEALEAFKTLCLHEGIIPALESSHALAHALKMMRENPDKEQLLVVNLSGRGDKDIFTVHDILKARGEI

B1: Escherichia coli tryptophan synthase beta subunit (βTS) (enzyme)
chain: MTTLLNPYFGEFGGMYVPQILMPALRQLEEAFVSAQKDPEFQAQFNDLLKNYAGRPTALTKCQNITAGTNTTLYLKREDLLHGGAHKTNQVLGQALLAKRMGKTEIIAETGAGQHGVASALASALLGLKCRIYMGAKDVERQSPNVFRMRLMGAEVIPVHSGSATLKDACNEALRDWSGSYETAHYMLGTAAGPHPYPTIVREFQRMIGEETKAQILEREGRLPDAVIACVGGGSNAIGMFADFINETNVGLIGVEPGGHGIETGEHGAPLKHGRVGIYFGMKAPMMQTEDGQIEESYSISAGLDFPSVGPQHAYLNSTGRADYVSITDDEALEAFKTLCLHEGIIPALESSHALAHALKMMRENPDKEQLLVVNLSGRGDKDIFTVHDILKARGEI
B2: Escherichia coli tryptophan synthase alpha subunit (αTS), wild type (enzyme, E. coli, UniProt P0A877 1-268, looked up)
chain: MERYESLFAQLKERKEGAFVPFVTLGDPGIEQSLKIIDTLIEAGADALELGIPFSDPLADGPTIQNATLRAFAAGVTPAQCFEMLALIRQKHPTIPIGLLMYANLVFNKGIDEFYAQCEKVGVDSVLVADVPVEESAPFRQAALRHNVAPIFICPPNADDDLLRQIASYGRGYTYLLSRAGVTGAENRAALPLNHLVAKLKEYNAAPPLQGFGISAPDQVKAAIDAGAAGAISGSAIVKIIEQHINEPEKMLAALKVFVQPMKAATRS
notes: tryptophan synthase alpha subunit (αTS, product of trpA), E. coli; Axe et al., 2014) for the construct and its purification; also called WT αTS; WT; source: E. coli BL21 (DE3*), purified as previously (Axe and Boehr, 2013; Axe et al., 2014; O'Rourke et al., 2019
B3: Escherichia coli tryptophan synthase alpha subunit (αTS), A198W variant (enzyme, E. coli, UniProt P0A877 1-268, looked up)
chain: MERYESLFAQLKERKEGAFVPFVTLGDPGIEQSLKIIDTLIEAGADALELGIPFSDPLADGPTIQNATLRAFAAGVTPAQCFEMLALIRQKHPTIPIGLLMYANLVFNKGIDEFYAQCEKVGVDSVLVADVPVEESAPFRQAALRHNVAPIFICPPNADDDLLRQIASYGRGYTYLLSRAGVTGAENRAALPLNHLVWKLKEYNAAPPLQGFGISAPDQVKAAIDAGAAGAISGSAIVKIIEQHINEPEKMLAALKVFVQPMKAATRS
notes: tryptophan synthase alpha subunit (αTS, product of trpA), E. coli, with the substitution A198W; Made by QuikChange site-directed mutagenesis of the wild-type αTS plasmid; also called A198W αTS; source: E. coli BL21 (DE3*), purified as previously (Axe and Boehr, 2013; Axe et al., 2014; O'Rourke et al., 2019)

Key:
[1] = biological target: T1, Escherichia coli tryptophan synthase …; experiment: ITC
[2] = biological target: T2, Escherichia coli tryptophan synthase …; experiment: ITC; αTS subunit (WT or A198W) binding to the βTS subunit; which protein was titrated, buffer and temperature are not told in the main text (Supplementary Figure 5); conditions: both partners purified
[3] = biological target: T2, Escherichia coli tryptophan synthase …; experiment: cell-based or functional assay

Binder | Kd [1] [nM] | Kd [2] [nM] | kcat/KM of the full TS complex reaction (production of tryptophan from IGP, 290 nm; 50 µM α2β2 TS complex) [3] [M⁻¹ s⁻¹] | kcat/KM of the βTS assay in the presence of αTS (production of tryptophan from indole, 290 nm; 0.5 µM α2β2 TS complex) [3] [M⁻¹ s⁻¹]
B1 | 28 |  |  | 
B2 |  | ~25 |  | 
B3 |  | ~25 | 9900 | 190000

Source: publication PMC8187860, “Substitution of a Surface-Exposed Residue Involved in an Allosteric Network Enhances Tryptophan Synthase Function in Cells” (Frontiers in Molecular Biosciences, 2021)
